Biological target: CoV OC43 spike glycoprotein (S) (human coronavirus OC43) (UniProt P36334)
Experiment: […], running buffer TBS, […]

Substance “CoV OC43 spike glycoprotein (S) (from UniProt P36334 14-1263) (natural protein)” has a stoichiometry N of 3.

Reference: PMC12404239
